T1: full length form of human PSGL-1 (human, UniProt Q14242 42-412)
T1 construct: whole, on cells; Expressed whole in COS cells and precipitated from the cell lysate with the biotinylated anti-PSGL-1 antibody 2G3; also called P-selectin glycoprotein ligand; CD162
T1 sequence (looked up): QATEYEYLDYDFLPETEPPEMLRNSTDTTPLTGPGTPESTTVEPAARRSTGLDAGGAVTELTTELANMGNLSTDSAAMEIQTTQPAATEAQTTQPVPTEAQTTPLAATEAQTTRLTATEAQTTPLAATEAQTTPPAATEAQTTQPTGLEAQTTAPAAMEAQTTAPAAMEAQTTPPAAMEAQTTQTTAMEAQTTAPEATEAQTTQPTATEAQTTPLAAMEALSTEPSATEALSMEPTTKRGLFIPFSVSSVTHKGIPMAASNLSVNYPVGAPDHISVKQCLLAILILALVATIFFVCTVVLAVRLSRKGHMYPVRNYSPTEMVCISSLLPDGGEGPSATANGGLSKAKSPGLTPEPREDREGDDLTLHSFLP


Target: T1, full length form of human PSGL-1
Assay: co-immunoprecipitation from COS cell lysates with anti-PSGL-1 antibody 2G3, anti-T7 Western blot
Protocol: COS cells were transfected with T7-tagged forms of SLIC-1 as described in Example 3. Vector pMT-PL85A (Genetics Institute) was included in a subset of samples to transiently overexpress the full length form of human PSGL-1. Cell lysis was carried out as described above in 900 μL/dish of lysis buffer consisting of 20 mM Tris-HCl, pH 7.4, 137 mM NaCl, 0.05% Triton-X and protease inhibitors (Hildt, E and Oess, S J 1999 J. Exp. Med. 189(11): 1707-1714). A small volume of cleared cell lysate was used for Western Blotting to detect overexpressed protein in the whole cell lysate and for spectrophotometric measurement of the protein content. A volume of 300 μL of each lysate was used for co-immunoprecipitation studies with either 2.5 μg of biotinylated monoclonal mouse anti-PSGL-1 antibody (antibody 2G3, Genetics Institute) or a biotinylated control antibody (SIGMA). The samples were agitated at 4° C. for 5 hours, and immuncomplexes were precipitated with streptavidin agarose beads (Pierce) under the same conditions for 1 hour. […] The presence of T7-tagged SLIC-1 protein in the samples was detected by Western blot analysis using an anti-T7 Horse Radish Peroxidase LumiBlot Kit (Novagen) according to the manufacturer's instructions.

binding result	Binder
no binding	T7-tagged truncated SLIC-1 protein comprising amino acid residues 1-88 (other, also called T7SLIC-1AA88; encoded by PED.T7U5AA88) MASMTGGQQMGMASPEHPGSPGCMGPITQCTARTQQEAPATGPDLPHPGPDGHLDTHSGLSSNSSMTTRELQQYWQNQKCRWKHVKLLFEIASARIEER
no binding	T7-tagged truncated SLIC-1 protein comprising amino acid residues 1-160 (other, Made with a linker; also called T7SLIC-1AA160; encoded by pED.T7U5AA160) MASMTGGQQMGMASPEHPGSPGCMGPITQCTARTQQEAPATGPDLPHPGPDGHLDTHSGLSSNSSMTTRELQQYWQNQKCRWKHVKLLFEIASARIEERKVSKFVVYQIIVIQTGSFDNNKAVLERRYSDFAKLQKALLKTFREEIEDVEFPRKHLTGNFAEEMICERRRA

From patent US20020037840A1 (GENETICS INSTITUTE, published 2002)
